Assays:
[1] = molecular target: N-terminal eGFP-tagged human CLEC-2 (CLEC-2-eGFP) (human) (UniProt Q9P126)
[2] = molecular target: integrin αIIbβ3 (human (endogenous in platelets)) (UniProt P05106); experiment: native gel or EMSA; SMA-PAGE: whole cell SMALPs of resting human platelets (2.5% SMA, NaCl to 500 mM) on native Tris-Glycine gels, western blot with anti-αIIb or anti-CLEC-2 AYP2

UniProt Q9P126, sequence (Q9P126 whole entry): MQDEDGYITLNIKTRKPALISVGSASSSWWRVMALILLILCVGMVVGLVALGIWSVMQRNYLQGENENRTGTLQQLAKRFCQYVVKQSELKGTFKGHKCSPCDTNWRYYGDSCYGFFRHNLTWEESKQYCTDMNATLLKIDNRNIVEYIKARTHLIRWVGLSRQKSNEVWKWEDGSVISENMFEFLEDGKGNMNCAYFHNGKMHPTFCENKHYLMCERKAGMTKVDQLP

Substance	NFAT-luciferase response to rhodocytin (30 nM) in low-expressing CLEC-2-eGFP (100 ng) DT40 cells: percent blocked by LUAS-2 (3 μM, 30 min before rhodocytin) [1] [%]	stoichiometry N [2]
rhodocytin (complex)	50	–
integrin αIIbβ3 (from UniProt P05106 27-788) (complex)	–	2
